B1: AP-1 complex subunit beta-1 (Homo sapiens), Q10567 (parent)
chain: MTDSKYFTTTKKGEIFELKAELNSDKKEKKKEAVKKVIASMTVGKDVSALFPDVVNCMQTDNLELKKLVYLYLMNYAKSQPDMAIMAVNTFVKDCEDPNPLIRALAVRTMGCIRVDKITEYLCEPLRKCLKDEDPYVRKTAAVCVAKLHDINAQLVEDQGFLDTLKDLISDSNPMVVANAVAALSEIAESHPSSNLLDLNPQSINKLLTALNECTEWGQIFILDCLANYMPKDDREAQSICERVTPRLSHANSAVVLSAVKVLMKFMEMLSKDLDYYGTLLKKLAPPLVTLLSAEPELQYVALRNINLIVQKRPEILKHEMKVFFVKYNDPIYVKLEKLDIMIRLASQANIAQVLAELKEYATEVDVDFVRKAVRAIGRCAIKVEQSAERCVSTLLDLIQTKVNYVVQEAIVVIKDIFRKYPNKYESVIATLCENLDSLDEPEARAAMIWIVGEYAERIDNADELLESFLEGFHDESTQVQLQLLTAIVKLFLKKPTETQELVQQVLSLATQDSDNPDLRDRGYIYWRLLSTDPVAAKEVVLAEKPLISEETDLIEPTLLDELICYIGTLASVYHKPPSAFVEGGRGVVHKSLPPRTASSESAESPETAPTGAPPGEQPDVIPAQGDLLGDLLNLDLGPPVSGPPLATSSVQMGAVDLLGGGLDSLMGDEPEGIGGTNFVAPPTAAVPANLGAPIGSGLSDLFDLTSGVGTLSGSYVAPKAVWLPAMKAKGLEISGTFTRQVGSISMDLQLTNKALQVMTDFAIQFNRNSFGLAPAAPLQVHAPLSPNQTVEISLPLSTVGSVMKMEPLNNLQVAVKNNIDVFYFSTLYPLHILFVEDGKMDRQMFLATWKDIPNENEAQFQIRDCPLNAEAASSKLQSSNIFTVAKRNVEGQDMLYQSLKLTNGIWVLAELRIQPGNPSCTDLELSLKCRAPEVSQHVYQAYETILKN
B2: AP-1 complex subunit gamma-1 (Mus musculus), P22892 (parent)
chain: MPAPIRLRELIRTIRTARTQAEEREMIQKECAAIRSSFREEDNTYRCRNVAKLLYMHMLGYPAHFGQLECLKLIASQKFTDKRIGYLGAMLLLDERQDVHLLMTNCIKNDLNHSTQFVQGLALCTLGCMGSSEMCRDLAGEVEKLLKTSNSYLRKKAALCAVHVIRKVPELMEMFLPATKNLLNEKNHGVLHTSVVLLTEMCERSPDMLAHFRKLVPQLVRILKNLIMSGYSPEHDVSGISDPFLQVRILRLLRILGRNDDDSSEAMNDILAQVATNTETSKNVGNAILYETVLTIMDIKSESGLRVLAINILGRFLLNNDKNIRYVALTSLLKTVQTDHNAVQRHRSTIVDCLKDLDVSIKRRAMELSFALVNGNNIRGMMKELLYFLDSCEPEFKADCASGIFLAAEKYAPSKRWHIDTIMRVLTTAGSYVRDDAVPNLIQLITNSVEMHAYTVQRLYKAILGDYSQQPLVQVAAWCIGEYGDLLVSGQCEEEEPIQVTEDEVLDILESVLISNMSTSVTRGYALTAIMKLSTRFTCTVNRIKKVVSIYGSSIDVELQQRAVEYNALFKKYDHMRSALLERMPVMEKVTTNGPSEIVQTNGETEPAPLETKPPPSGPQPTSQANDLLDLLGGNDITPVIPTAPTSKPASAGGELLDLLGDITLTGAPAAAPTPASVPQISQPPFLLDGLSSQPLFNDIAPGIPSITAYSKNGLKIEFTFERSNTNPSVTVITIQASNSTELDMTDFVFQAAVPKTFQLQLLSPSSSVVPAFNTGTITQVIKVLNPQKQQLRMRIKLTYNHKGSAMQDLAEVNNFPPQSWQ
partner: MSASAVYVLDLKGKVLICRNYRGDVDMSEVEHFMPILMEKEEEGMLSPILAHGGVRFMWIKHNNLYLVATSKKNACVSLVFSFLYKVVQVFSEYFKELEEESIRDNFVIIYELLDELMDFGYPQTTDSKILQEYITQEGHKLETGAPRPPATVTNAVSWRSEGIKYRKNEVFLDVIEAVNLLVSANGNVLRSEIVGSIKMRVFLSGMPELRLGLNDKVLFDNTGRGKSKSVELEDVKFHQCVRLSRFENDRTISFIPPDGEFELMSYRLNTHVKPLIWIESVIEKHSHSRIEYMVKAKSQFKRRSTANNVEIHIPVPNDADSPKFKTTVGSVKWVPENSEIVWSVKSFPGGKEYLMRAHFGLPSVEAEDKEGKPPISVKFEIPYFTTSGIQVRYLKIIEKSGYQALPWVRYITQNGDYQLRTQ

Variants of: B1
Details: with ap1g1_human AP1G1, O43747

Row | effect of a mutation on the interaction | Variant
1 | disrupting interaction strength | I85D;V88D

Variants of: B2
Details: with ap1m1_mouse Ap1m1, P35585

Row | effect of a mutation on the interaction | Variant
2 | disrupting interaction strength | L68D;L71E;L102E

Source: IntAct's records for PubMed 23415225
